Measured values taken from paper PMC6572826, “Native top-down mass spectrometry provides insights into the copper centers of membrane-bound methane monooxygenase” (Nature Communications, 2019).

B1: PmoC subunit of particulate methane monooxygenase from Methylomicrobium alcaliphilum 20Z (20Z-pMMO), truncated proteoform (natural protein, UniProt G4SZ62 7-250, looked up)
chain: SVKADAAEAPLLNKKNIIAGASLYLVFYAWVRWYEGVYGWSAGLDSFAPEFETYWMNFLYIEMVLEVLTASVLWGYIWKSRDRKVMSITPREELRRHFTHWTWLMMYGIAIYFGASYFTEQDGTWHQTIVRDTDFTPSHIIEFYLSYPIYIITGGASFLYAKTRLPTYQQGLSLQYLVVVVGPFMILPNVGLNEWGHTFWFMEELFVAPLHYGFVFFGWSALGVLGVINIELGALSKLLKKDLA
notes: PmoC subunit of pMMO, Methylomicrobium alcaliphilum 20Z; the major species is a truncated form without the first six N-terminal residues (MAATTE); theoretical mass of the whole subunit 28,851.4 Da; A minor PmoC species without the initiator methionine and with N-terminal acetylation was also seen from nanodiscs; also called truncated PmoC; 20Z-pMMO PmoC; source: endogenous, Mm. alcaliphilum 20Z …
B2: PmoA subunit of particulate methane monooxygenase from Methylomicrobium alcaliphilum 20Z (20Z-pMMO) (natural protein, UniProt G4SZ63 2-247, looked up)
chain: SASQSAVRSRAEAVKVSRTFDYMILFTVFFVVLGGYHIHYMLTGGDWDFWTDWKDRRLWVTVAPIVSITFPAAVQAVLWWRYRIAWGATLCVLGLLLGEWINRYFNFWGWTYFPVNFVFPSNLMPGAIVLDVILMLSNSMTLTAVVGGLAWGLLFYPGNWPIIAPLHVPVEYNGMMMTLADLQGYHYVRTGTPEYIRMVEKGTLRTFGKDVAPVSAFFSGFVSILIYFLWHFFGSWFGSEKFVQAA
modifications: initiator methionine removed (MetOFF); N-terminal acetylation (NtAc) on the new N-terminus
notes: PmoA subunit of pMMO, Methylomicrobium alcaliphilum 20Z; theoretical mass of the unmodified subunit 28,257.1 Da; found without the initiator methionine and N-terminally acetylated; also called 20Z-pMMO PmoA; source: endogenous, Mm. alcaliphilum 20Z membranes, solubilized with DDM, purified by anion exchange chromatography

How the values were obtained:
[1] = molecular target: T1, PmoB subunit of particulate methane monooxygenase from Methylomicrobium alcaliphilum 20Z (20Z-pMMO) (Methylomicrobium alcaliphilum 20Z, UniProt G4SZ64 33-414, methyl-lysine at Lys 36 (~100% stoichiometry)); test: native MS; pMMO solubilized in DDM, exchanged into 200 mM ammonium acetate, pH 7.2, 0.155% (w/v) Triton X-100; protomer ejected from the micelle (MS^1), then subunits ejected from the protomer by collisional activation (MS^2); settings: both partners purified
T1 construct: PmoB subunit of pMMO, Methylomicrobium alcaliphilum 20Z; residues His 33 to Ile 414 after cleavage of the N-terminal signal peptide; theoretical mass 42,147.17 Da; also called 20Z-pMMO PmoB; source: endogenous, Mm. alcaliphilum 20Z membranes, solubilized with DDM, purified by anion exchange chromatography
T1 sequence (looked up): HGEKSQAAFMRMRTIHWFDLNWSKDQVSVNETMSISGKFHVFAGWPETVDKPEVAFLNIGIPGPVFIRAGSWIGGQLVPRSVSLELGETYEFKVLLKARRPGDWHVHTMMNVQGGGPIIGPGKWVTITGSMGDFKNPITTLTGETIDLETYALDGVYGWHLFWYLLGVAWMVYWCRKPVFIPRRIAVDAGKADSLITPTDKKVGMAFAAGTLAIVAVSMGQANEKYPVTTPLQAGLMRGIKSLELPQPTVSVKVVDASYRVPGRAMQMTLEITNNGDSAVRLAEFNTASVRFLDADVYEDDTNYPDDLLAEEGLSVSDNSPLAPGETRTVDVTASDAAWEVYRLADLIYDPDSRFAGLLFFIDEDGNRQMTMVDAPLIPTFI

[2] = molecular target: B2; test: native MS; pMMO in POPC nanodiscs (MSP2N2 or MSP1E3D1), 200 mM ammonium acetate, pH 7.2; subunits ejected from the pMMO-nanodisc complex by CID at the source (MS^2) and fragmented (MS^3); no intact mass of the complex obtained; settings: both partners purified

| Binder | binding result [1] | binding result [2] |
| --- | --- | --- |
| B1 | binds | binds |
| B2 | binds |  |
